Molecular target: human TrkB receptor (overexpressed on TrkB-NFAT-bla CHO-K1 reporter cells) (human) (UniProt Q16620)
Assay: cell-based or functional assay

Sequence of human TrkB receptor (overexpressed on TrkB-NFAT-bla CHO-K1 reporter cells) (human) (Q16620 32-822): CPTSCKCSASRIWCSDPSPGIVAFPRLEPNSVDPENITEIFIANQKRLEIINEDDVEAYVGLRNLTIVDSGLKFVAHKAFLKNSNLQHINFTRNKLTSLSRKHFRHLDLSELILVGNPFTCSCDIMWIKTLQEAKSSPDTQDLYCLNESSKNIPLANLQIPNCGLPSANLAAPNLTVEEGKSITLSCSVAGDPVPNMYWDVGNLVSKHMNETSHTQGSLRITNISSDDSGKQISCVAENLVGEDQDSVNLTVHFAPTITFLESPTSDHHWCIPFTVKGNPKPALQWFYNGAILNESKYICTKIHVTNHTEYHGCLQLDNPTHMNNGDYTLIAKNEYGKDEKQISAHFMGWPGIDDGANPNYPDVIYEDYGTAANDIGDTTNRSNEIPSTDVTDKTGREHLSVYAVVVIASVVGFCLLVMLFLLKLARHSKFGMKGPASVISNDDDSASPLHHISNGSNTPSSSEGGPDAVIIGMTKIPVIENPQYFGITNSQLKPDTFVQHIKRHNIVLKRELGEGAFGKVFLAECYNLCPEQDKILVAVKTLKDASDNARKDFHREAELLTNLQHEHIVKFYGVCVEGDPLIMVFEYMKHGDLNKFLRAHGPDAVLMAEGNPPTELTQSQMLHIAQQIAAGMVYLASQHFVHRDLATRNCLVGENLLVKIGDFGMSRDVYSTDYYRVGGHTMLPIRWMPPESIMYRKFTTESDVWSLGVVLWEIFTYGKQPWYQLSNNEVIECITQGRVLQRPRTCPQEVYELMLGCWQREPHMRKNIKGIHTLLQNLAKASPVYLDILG

EC50 of beta-lactamase reporter response in TrkB-NFAT-bla CHO-K1 cells: 0.055 nM
Substance: BDNF (brain derived neurotrophic factor; Peprotech) (from UniProt P23560 129-247) (ligand)

— US20230000998A1
